From paper PMC5387315, “Functional and structural studies on the Neisseria gonorrhoeae GmhA, the first enzyme in the glycero‐manno‐heptose biosynthesis pathways, demonstrate a critical role in lipooligosaccharide synthesis and gonococcal viability” (MicrobiologyOpen, 2017)

Target: the molecule itself
Test: SEC; HiLoad 16/600 Superdex 75 pg, 20 mmol/L Tris-HCl pH 8.0, 500 mmol/L NaCl, 1 ml/min; size by Gel Filtration Standard (Bio-Rad)

B1: recombinant Neisseria gonorrhoeae sedoheptulose-7-phosphate isomerase GmhA, untagged (rGmhAGC) (enzyme, Neisseria gonorrhoeae FA1090, UniProt Q5F5E3 1-197, looked up)
chain: MTTLQERVAAHFAESIRAKQEAEKILVEPTVQAAELMLQCLMNDGKILACGNGGSAADAQHFAAEMTGRFEKERMELAAVALTTDTSALTAIGNDYGFDHVFSKQVRALGRAGDVLVGISTSGNSANVIEAVKAAHERDMHVIALTGRDGGKIAAMLKDTDVLLNVPHPRTARIQENHILLIHAMCDCIDSVLLEGM
notes: GmhA (sedoheptulose-7-phosphate isomerase) of N. gonorrhoeae FA1090, encoded by ngo1986; 197 amino acids, predicted mass 21.093 kDa; ngo1986 amplified without its stop codon and cloned into NcoI/HindIII of pRSF-NT; His tag removed by TEV protease; also called NGO1986; 6 × His-tag-free rGmhAGC; source: E. coli BL21(DE3), purified (IMAC, TEV cleavage, Ni-NTA); not shown: His6, N-terminal, cleaved
- stoichiometry N: 4
